Measured values taken from patent US20140378663A1.

How the values were obtained:
[1] = biological target: C1q complement (Calbiochem) (UniProt P02745); assay: ELISA, 293-F supernatant, vs R603 IgG-WT
[2] = biological target: FcγRIIaR131 (R&D system) (human) (UniProt P12318); assay: ELISA, 293-F supernatant, vs R603 IgG-WT
[3] = biological target: FcγRIIb (R&D system) (human) (UniProt P31994); assay: ELISA, 293-F supernatant, vs R603 IgG-WT
[4] = biological target: FcγRI (R&D system) (human) (UniProt P12314); assay: ELISA, 293-F supernatant, vs R603 IgG-WT
[5] = biological target: FcRn-p3 (fusion protein of β2 microglobulin chain and FcRn α-chain fused to bacteriophage protein p3 and CVDE protein) (UniProt P61769); assay: ELISA, 293-F supernatant, vs R603 IgG-WT
[6] = biological target: Recombinant soluble human FcRn (human) (UniProt P55899); assay: SPR (BIAcore X100), FcRn immobilised, pH 6.0
[7] = biological target: RhD antigen on RhD+ red blood cells (UniProt Q02161); assay: flow cytometry on RhD+ red blood cells
Fcγ receptors = assay: cell-based or functional assay
[8] = biological target: FcγRIIaH131 (PX Therapeutics, His-tagged) (human) (UniProt P12318); assay: ELISA, purified IgG from YB2/0, vs parent R603-256N/378V/383N/434Y
[9] = biological target: FcγRIIaR131 (R&D system) (human) (UniProt P12318); assay: as above
[10] = biological target: FcγRIIb (R&D system) (human) (UniProt P31994); assay: as above
[11] = biological target: FcγRI (R&D system) (human) (UniProt P12314); assay: as above
[12] = biological target: FcRn-p3 (fusion protein of β2 microglobulin chain and FcRn α-chain fused to bacteriophage protein p3 and CVDE protein) (UniProt P61769); assay: as above
[13] = biological target: C1q complement (Calbiochem) (UniProt P02745); assay: ELISA, 293-F supernatant, vs parent 256N/378V/383N/434Y
[14] = biological target: FcγRIIaR131 (R&D system) (human) (UniProt P12318); assay: as above
[15] = biological target: FcγRIIb (R&D system) (human) (UniProt P31994); assay: as above
[16] = biological target: FcγRI (R&D system) (human) (UniProt P12314); assay: as above
[17] = biological target: FcRn-p3 (fusion protein of β2 microglobulin chain and FcRn α-chain fused to bacteriophage protein p3 and CVDE protein) (UniProt P61769); assay: as above
[18] = biological target: FcγRIIIaV158 (R&D system) (human) (UniProt P08637); assay: ELISA, 293-F supernatant, vs R603 IgG-WT
[19] = biological target: FcγRIIaH131 (PX Therapeutics, His-tagged) (human) (UniProt P12318); assay: ELISA, purified IgG from YB2/0, vs R603 IgG-WT
[20] = biological target: FcγRIIaR131 (R&D system) (human) (UniProt P12318); assay: ELISA, purified IgG from YB2/0, vs R603 IgG-WT
[21] = biological target: FcγRIIIaV158 (R&D system) (human) (UniProt P08637); assay: ELISA, purified IgG from YB2/0, vs R603 IgG-WT
[22] = biological target: FcγRIIb (R&D system) (human) (UniProt P31994); assay: ELISA, purified IgG from YB2/0, vs R603 IgG-WT
[23] = biological target: FcγRIIIaF158 (PX Therapeutics, His-tagged) (human) (UniProt P08637); assay: ELISA, purified IgG from YB2/0, vs R603 IgG-WT
[24] = biological target: FcγRI (R&D system) (human) (UniProt P12314); assay: ELISA, purified IgG from YB2/0, vs R603 IgG-WT
[25] = biological target: FcRn-p3 (fusion protein of β2 microglobulin chain and FcRn α-chain fused to bacteriophage protein p3 and CVDE protein) (UniProt P61769); assay: ELISA, purified IgG from YB2/0, vs R603 IgG-WT
[26] = biological target: T1, CD20 antigen on Raji lymphoblastoid B cells (UniProt P11836); assay: flow cytometry on Raji cells
T1 sequence (looked up): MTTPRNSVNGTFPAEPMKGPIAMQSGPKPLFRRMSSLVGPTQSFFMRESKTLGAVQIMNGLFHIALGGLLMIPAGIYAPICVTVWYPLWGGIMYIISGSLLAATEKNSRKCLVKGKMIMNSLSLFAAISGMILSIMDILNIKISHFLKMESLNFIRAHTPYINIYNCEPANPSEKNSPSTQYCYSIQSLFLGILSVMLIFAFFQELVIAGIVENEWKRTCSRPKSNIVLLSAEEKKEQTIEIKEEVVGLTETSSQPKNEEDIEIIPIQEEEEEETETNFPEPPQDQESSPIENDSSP

[27] = biological target: Recombinant soluble human FcRn (human) (UniProt P55899); assay: SPR, FcRn immobilised, pH 6.0; reference R603
[28] = biological target: C1q complement (Calbiochem) (UniProt P02745); assay: cell-based or functional assay
[29] = biological target: FcγRIIaH131 (PX Therapeutics, His-tagged) (human) (UniProt P12318); assay: ELISA, purified IgG from YB2/0, vs R593 IgG-WT
[30] = biological target: FcγRIIaR131 (R&D system) (human) (UniProt P12318); assay: ELISA, purified IgG from YB2/0, vs R593 IgG-WT
[31] = biological target: FcγRIIIaV158 (R&D system) (human) (UniProt P08637); assay: ELISA, purified IgG from YB2/0, vs R593 IgG-WT
[32] = biological target: FcγRIIb (R&D system) (human) (UniProt P31994); assay: ELISA, purified IgG from YB2/0, vs R593 IgG-WT
[33] = biological target: FcγRIIIaF158 (PX Therapeutics, His-tagged) (human) (UniProt P08637); assay: ELISA, purified IgG from YB2/0, vs R593 IgG-WT
[34] = biological target: FcγRI (R&D system) (human) (UniProt P12314); assay: ELISA, purified IgG from YB2/0, vs R593 IgG-WT
[35] = biological target: FcRn-p3 (fusion protein of β2 microglobulin chain and FcRn α-chain fused to bacteriophage protein p3 and CVDE protein) (UniProt P61769); assay: ELISA, purified IgG from YB2/0, vs R593 IgG-WT
[36] = biological target: Recombinant soluble human FcRn (human) (UniProt P55899); assay: SPR, FcRn immobilised, pH 6.0; reference R593

Chain of FcγRIIIaV158 (R&D system) (human) (P08637 17-208 F176V limits assumed): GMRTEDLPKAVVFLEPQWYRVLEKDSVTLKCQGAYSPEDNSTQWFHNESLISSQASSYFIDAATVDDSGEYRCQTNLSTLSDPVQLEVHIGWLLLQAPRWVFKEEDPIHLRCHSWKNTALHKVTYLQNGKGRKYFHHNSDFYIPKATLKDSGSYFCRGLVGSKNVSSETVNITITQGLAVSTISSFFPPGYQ
Chain of RhD antigen on RhD+ red blood cells (Q02161 2-417 limits assumed): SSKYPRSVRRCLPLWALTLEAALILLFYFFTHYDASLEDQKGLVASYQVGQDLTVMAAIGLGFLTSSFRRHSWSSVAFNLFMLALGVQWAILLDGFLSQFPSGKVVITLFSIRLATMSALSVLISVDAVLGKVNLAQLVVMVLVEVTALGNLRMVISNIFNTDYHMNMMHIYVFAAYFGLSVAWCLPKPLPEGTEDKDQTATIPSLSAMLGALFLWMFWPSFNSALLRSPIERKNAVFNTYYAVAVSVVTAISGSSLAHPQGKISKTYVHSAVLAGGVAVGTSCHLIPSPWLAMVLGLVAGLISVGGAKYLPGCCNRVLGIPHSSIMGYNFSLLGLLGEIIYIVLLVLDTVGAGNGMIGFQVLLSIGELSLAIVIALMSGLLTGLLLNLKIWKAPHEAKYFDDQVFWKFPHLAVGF
Chain of Recombinant soluble human FcRn (human) (P55899 24-290 limits assumed, chain 1 of 2): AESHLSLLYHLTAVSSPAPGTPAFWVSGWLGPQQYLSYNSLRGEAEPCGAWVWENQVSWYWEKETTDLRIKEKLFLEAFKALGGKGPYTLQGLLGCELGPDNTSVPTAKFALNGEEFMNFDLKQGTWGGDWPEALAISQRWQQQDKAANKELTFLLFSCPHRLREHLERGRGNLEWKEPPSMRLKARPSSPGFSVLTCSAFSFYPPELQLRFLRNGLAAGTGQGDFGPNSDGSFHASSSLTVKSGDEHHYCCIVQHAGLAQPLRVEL
Chain of Recombinant soluble human FcRn (human) (P61769 21-119 limits assumed, chain 2 of 2, further chain): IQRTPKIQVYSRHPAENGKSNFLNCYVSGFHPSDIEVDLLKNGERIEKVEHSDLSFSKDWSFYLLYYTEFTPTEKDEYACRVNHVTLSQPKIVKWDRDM
Chain of FcγRI (R&D system) (human) (P12314 16-288 limits assumed): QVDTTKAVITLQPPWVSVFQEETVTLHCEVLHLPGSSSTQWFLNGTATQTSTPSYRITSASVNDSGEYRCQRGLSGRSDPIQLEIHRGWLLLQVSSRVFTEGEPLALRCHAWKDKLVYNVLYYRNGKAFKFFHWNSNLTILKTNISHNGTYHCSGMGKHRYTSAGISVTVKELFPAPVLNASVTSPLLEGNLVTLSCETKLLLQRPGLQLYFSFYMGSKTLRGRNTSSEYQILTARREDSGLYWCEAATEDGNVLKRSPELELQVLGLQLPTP
Chain of C1q complement (Calbiochem) (P02745 23-245, chain 1 of 3): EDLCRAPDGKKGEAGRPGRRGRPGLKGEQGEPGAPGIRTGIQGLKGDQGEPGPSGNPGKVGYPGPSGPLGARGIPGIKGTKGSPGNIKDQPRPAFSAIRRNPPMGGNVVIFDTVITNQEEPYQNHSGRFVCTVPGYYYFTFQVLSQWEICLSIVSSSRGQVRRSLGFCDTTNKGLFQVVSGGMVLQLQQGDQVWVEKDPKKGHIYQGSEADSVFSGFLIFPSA
Chain of C1q complement (Calbiochem) (P02746 28-253, chain 2 of 3, further chain): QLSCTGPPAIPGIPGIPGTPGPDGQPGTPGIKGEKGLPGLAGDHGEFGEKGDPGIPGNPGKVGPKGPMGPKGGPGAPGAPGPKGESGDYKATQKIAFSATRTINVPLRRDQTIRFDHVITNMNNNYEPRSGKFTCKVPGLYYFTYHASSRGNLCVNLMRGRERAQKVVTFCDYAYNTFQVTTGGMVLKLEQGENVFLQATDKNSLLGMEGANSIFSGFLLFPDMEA
Chain of C1q complement (Calbiochem) (P02747 29-245, chain 3 of 3, further chain): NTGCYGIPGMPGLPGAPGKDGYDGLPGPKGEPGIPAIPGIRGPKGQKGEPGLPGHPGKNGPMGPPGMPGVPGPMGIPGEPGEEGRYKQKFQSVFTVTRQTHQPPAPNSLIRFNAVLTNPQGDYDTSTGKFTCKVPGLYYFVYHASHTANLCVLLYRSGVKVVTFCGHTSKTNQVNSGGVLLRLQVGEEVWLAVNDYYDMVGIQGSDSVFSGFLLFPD
Chain of FcγRIIaH131 (PX Therapeutics, His-tagged) (human) (P12318 34-217 limits assumed): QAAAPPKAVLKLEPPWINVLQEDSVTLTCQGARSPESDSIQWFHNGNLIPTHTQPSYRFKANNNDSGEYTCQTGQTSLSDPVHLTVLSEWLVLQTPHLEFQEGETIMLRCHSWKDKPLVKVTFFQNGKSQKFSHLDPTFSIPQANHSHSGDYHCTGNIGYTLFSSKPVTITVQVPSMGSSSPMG
Chain of FcRn-p3 (fusion protein of β2 microglobulin chain and FcRn α-chain fused to bacteriophage protein p3 and CVDE protein) (P61769 21-119, chain 1 of 2): as the sequence (P61769 21-119 limits assumed, chain 2 of 2, further chain) above
Chain of FcRn-p3 (fusion protein of β2 microglobulin chain and FcRn α-chain fused to bacteriophage protein p3 and CVDE protein) (P55899 24-290, chain 2 of 2, further chain): as the sequence (P55899 24-290 limits assumed, chain 1 of 2) above
Chain of FcγRIIIaF158 (PX Therapeutics, His-tagged) (human) (P08637 17-208 limits assumed): as the sequence (P08637 17-208 F176V limits assumed) above, with V160F counted along it
Chain of FcγRIIaR131 (R&D system) (human) (P12318 36-218 H167R limits assumed): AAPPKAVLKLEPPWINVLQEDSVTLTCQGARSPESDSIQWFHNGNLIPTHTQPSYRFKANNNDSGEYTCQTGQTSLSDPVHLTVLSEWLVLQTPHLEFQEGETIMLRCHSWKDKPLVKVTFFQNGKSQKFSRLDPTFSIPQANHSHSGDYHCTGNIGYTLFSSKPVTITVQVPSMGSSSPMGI
Chain of FcγRIIb (R&D system) (human) (P31994 46-217 limits assumed): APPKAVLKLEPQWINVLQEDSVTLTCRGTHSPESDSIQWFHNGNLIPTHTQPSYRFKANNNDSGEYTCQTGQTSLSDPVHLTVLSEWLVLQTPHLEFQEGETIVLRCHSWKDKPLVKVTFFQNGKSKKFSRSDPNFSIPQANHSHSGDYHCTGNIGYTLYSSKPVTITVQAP

## R603 anti-CD20 IgG1 variant 230S/294Del/315D/428L/434Y (antibody)
[1]
  Ratio/IgG-WT: 0.35
[2]
  Ratio/IgG-WT: 0.01
[3]
  Ratio/IgG-WT: 0.02
[4]
  Ratio/IgG-WT: 0.25
[5]
  Ratio/IgG-WT: 3.86

## R603 anti-CD20 IgG1 variant 294Del/307A (antibody)
[1]
  Ratio/IgG-WT: 0.46
[2]
  Ratio/IgG-WT: 0.01
[3]
  Ratio/IgG-WT: 0.2
[4]
  Ratio/IgG-WT: 0.35
[5]
  Ratio/IgG-WT: 1.94

## R603 anti-CD20 IgG1 variant 294Del/302A (antibody)
[1]
  Ratio/IgG-WT: 0.21
[2]
  Ratio/IgG-WT: 0.02
[3]
  Ratio/IgG-WT: 0.06
[4]
  Ratio/IgG-WT: 0.06
[5]
  Ratio/IgG-WT: 0.66

## R593 anti-RhD+ IgG1 variant 294Del (antibody)
[6]
  Kd: 204 nM
[7]
  Ag binding MFI (Arbitrary Unit): 52.6
Fcγ receptors
  ADCC EC50 (ng/ml), lysis of RhD+ red cells: 75.9 ng/mL
  ADCC Max. Lysis (%): 5%

## R603 anti-CD20 IgG1 variant 294Del/378V (antibody)
[2]
  Ratio/IgG-WT: 0.06
[3]
  Ratio/IgG-WT: 0.11
[4]
  Ratio/IgG-WT: 0.33
[5]
  Ratio/IgG-WT: 1.46

## R603 anti-CD20 IgG1 variant 256N/294Del/378V/383N/434Y (antibody)
[8]
  ratio to the IgG1 without 294Del: 0.09
[9]
  ratio to the IgG1 without 294Del: 0.06
[10]
  ratio to the IgG1 without 294Del: 0.25
[11]
  ratio to the IgG1 without 294Del: 0.07
[12]
  ratio to the IgG1 without 294Del: 1.04
[13]
  ratio to the IgG1 without 294Del: 0.04
[14]
  ratio to the IgG1 without 294Del: 0.004
[15]
  ratio to the IgG1 without 294Del: 0.002
[16]
  ratio to the IgG1 without 294Del: 0.66
[17]
  ratio to the IgG1 without 294Del: 0.75

## R603 anti-CD20 IgG1 variant 294Del/315D (antibody)
[1]
  Ratio/IgG-WT: 0.29
[3]
  Ratio/IgG-WT: 0.21
[4]
  Ratio/IgG-WT: 0.4
[5]
  Ratio/IgG-WT: 1.16

## R603 anti-CD20 IgG1 variant 294Del/434S (antibody)
[1]
  Ratio/IgG-WT: 0.25
[2]
  Ratio/IgG-WT: 0.02
[3]
  Ratio/IgG-WT: 0.05
[4]
  Ratio/IgG-WT: 0.49
[5]
  Ratio/IgG-WT: 2.64

## R603 anti-CD20 IgG1 variant 294Del/397M (antibody)
[1]
  Ratio/IgG-WT: 0.25
[2]
  Ratio/IgG-WT: 0.03
[3]
  Ratio/IgG-WT: 0.04
[4]
  Ratio/IgG-WT: 0.68
[5]
  Ratio/IgG-WT: 0.84

## R603 anti-CD20 IgG1 variant 256N/378V/383N/434Y (antibody)
[1]
  Ratio/IgG-WT: 3.65
[2]
  Ratio/IgG-WT: 2.59
[18]
  Ratio/IgG-WT: 2.09
[3]
  Ratio/IgG-WT: 4.77
[4]
  Ratio/IgG-WT: 0.93
[5]
  Ratio/IgG-WT: 4.63
[19]
  Ratio/IgG-WT: 0.93
[20]
  Ratio/IgG-WT: 1.4
[21]
  Ratio/IgG-WT: 1.22
[22]
  Ratio/IgG-WT: 1.83
[23]
  Ratio/IgG-WT: 1.25
[24]
  Ratio/IgG-WT: 2.19
[25]
  Ratio/IgG-WT: 8.51

## R603 anti-CD20 IgG1 variant 294Del (antibody)
[6]
  Kd: 190 nM
[26]
  Ag binding MFI (Arbitrary Unit): 126

## R603 anti-CD20 IgG1 variant 259I/315D/434Y (antibody)
[6]
  Kd: 26.9 nM
[27]
  Ratio WT/IgG (KD): 3.68
[1]
  Ratio/IgG-WT: 1.26
[2]
  Ratio/IgG-WT: 1.23
[18]
  Ratio/IgG-WT: 1.08
[3]
  Ratio/IgG-WT: 1.07
[4]
  Ratio/IgG-WT: 0.82
[5]
  Ratio/IgG-WT: 4.32
[19]
  Ratio/IgG-WT: 0.99
[20]
  Ratio/IgG-WT: 1.11
[21]
  Ratio/IgG-WT: 1.11
[22]
  Ratio/IgG-WT: 1.54
[23]
  Ratio/IgG-WT: 1.11
[24]
  Ratio/IgG-WT: 1.12
[25]
  Ratio/IgG-WT: 6.93
[28]
  CDC EC50: 0.41 µg/mL
[26]
  Ag binding MFI (Arbitrary Unit): 137

## R593 anti-RhD+ IgG1 variant 259I/315D/434Y (antibody)
[6]
  Kd: 20.4 nM
[7]
  Ag binding MFI (Arbitrary Unit): 47.2
[29]
  Ratio/IgG-WT: 0.94
[30]
  Ratio/IgG-WT: 1.05
[31]
  Ratio/IgG-WT: 0.95
[32]
  Ratio/IgG-WT: 1.41
[33]
  Ratio/IgG-WT: 0.94
[34]
  Ratio/IgG-WT: 1.08
[35]
  Ratio/IgG-WT: 7.93
Fcγ receptors
  ADCC EC50 (ng/ml), lysis of RhD+ red cells: 14.2 ng/mL
  ADCC Max. Lysis (%): 89%
[36]
  Ratio WT/IgG (KD): 9.31

## R593 anti-RhD+ IgG1 variant 256N/378V/383N/434Y (antibody)
[6]
  Kd: 42 nM
[7]
  Ag binding MFI (Arbitrary Unit): 49.6
[29]
  Ratio/IgG-WT: 1.01
[30]
  Ratio/IgG-WT: 1.08
[31]
  Ratio/IgG-WT: 0.98
[32]
  Ratio/IgG-WT: 1.55
[33]
  Ratio/IgG-WT: 0.92
[34]
  Ratio/IgG-WT: 2.19
[35]
  Ratio/IgG-WT: 7.49
Fcγ receptors
  ADCC EC50 (ng/ml), lysis of RhD+ red cells: 11.1 ng/mL
  ADCC Max. Lysis (%): 93%
[36]
  Ratio WT/IgG (KD): 4.52
